Laboratory results reported in publication PMC4020580.

Biological target: bovine trypsin (bovine)

stoichiometry of inhibition (SI) of bovine trypsin | Substance
1.1 | labeled single-Cys S47C α1AT (natural protein)
1.1 | labeled single-Cys S313C α1AT (natural protein)
1.1 | α1AT Ser313Cys double-Cys variant (2Cys313), unlabeled (natural protein)
